Among the data in the supplement of paper PMC6379048 are EC50 values, retold here.

Holding throughout (experiment): EC50 of free RNA motif oligo competing protein binding to immobilised probe
One data set concerns the target T1, UPF1 (UniProt Q92900).
T1 sequence: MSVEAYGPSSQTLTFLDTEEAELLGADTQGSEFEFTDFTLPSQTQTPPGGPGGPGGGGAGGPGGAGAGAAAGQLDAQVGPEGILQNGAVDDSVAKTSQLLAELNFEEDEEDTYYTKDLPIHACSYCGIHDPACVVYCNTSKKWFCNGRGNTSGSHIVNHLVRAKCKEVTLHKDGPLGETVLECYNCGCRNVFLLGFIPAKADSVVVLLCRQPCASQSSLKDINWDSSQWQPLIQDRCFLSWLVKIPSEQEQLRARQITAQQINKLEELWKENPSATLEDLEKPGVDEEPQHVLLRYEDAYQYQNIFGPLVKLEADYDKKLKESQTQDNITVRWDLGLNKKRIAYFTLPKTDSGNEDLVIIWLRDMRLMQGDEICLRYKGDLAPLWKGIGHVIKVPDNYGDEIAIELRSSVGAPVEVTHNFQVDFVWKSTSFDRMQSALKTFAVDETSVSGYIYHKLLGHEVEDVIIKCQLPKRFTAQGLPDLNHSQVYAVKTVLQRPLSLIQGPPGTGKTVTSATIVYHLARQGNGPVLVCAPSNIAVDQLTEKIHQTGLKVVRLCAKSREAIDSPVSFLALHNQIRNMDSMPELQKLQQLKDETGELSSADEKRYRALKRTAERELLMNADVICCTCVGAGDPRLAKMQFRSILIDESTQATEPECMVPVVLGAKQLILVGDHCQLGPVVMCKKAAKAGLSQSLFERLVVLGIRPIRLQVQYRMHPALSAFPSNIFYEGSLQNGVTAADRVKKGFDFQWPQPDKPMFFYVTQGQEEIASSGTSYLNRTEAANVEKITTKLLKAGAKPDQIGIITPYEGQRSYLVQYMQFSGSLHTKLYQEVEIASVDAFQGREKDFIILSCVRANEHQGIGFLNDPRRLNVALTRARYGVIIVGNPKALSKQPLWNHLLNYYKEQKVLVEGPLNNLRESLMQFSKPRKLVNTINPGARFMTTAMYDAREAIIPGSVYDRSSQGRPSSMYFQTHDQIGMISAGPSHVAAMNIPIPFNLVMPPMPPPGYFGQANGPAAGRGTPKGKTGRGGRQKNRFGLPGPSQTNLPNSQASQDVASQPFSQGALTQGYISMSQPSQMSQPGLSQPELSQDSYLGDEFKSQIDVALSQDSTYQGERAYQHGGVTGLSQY
In outline:
(§1)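 Kd was calculated as EC50, taken from a four-parameter log-logistic fit, multiplied by a protein-dependent depletion factor. The assay used HEK293-FT lysate (2.5 mg protein/well) pre-incubated for 1 h at 4°C with free RNA oligos (0 nM to 30 μM), then incubated for 30 min at 4°C with the matching oligos bound through a 5′-amino-C6 linker to NHS-Sepharose beads. Bound proteins were measured by label-free LC-MS/MS and normalised to the control.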

A further data set concerns the target T2, NONO (UniProt Q15233).
T2 sequence: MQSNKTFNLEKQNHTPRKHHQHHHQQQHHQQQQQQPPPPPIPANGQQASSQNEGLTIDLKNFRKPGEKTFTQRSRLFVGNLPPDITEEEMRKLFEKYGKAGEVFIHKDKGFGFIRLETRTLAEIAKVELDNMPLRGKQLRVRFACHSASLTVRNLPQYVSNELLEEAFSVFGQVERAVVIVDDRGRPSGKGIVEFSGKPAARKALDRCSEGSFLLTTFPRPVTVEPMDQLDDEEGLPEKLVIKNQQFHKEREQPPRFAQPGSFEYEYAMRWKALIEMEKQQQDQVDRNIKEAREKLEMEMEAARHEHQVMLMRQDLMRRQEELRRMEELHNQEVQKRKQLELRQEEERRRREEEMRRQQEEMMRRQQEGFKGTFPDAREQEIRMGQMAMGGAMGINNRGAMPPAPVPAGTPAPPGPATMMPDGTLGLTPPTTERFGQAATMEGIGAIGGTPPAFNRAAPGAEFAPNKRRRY
In short, it runs like this: as §1

The target in another data set is SF3B6 (UniProt Q9Y3B4). In short, it runs like this: as §1
For the next data set, the target named is PCBP2 (UniProt Q15366). In outline:
as §1

The target in the next data set is RPS13 (UniProt P62277). In short, it runs like this:
as §1

The next data set has as its target ZNFX1 (UniProt Q9P2E3). In short, it runs like this: as §1
A further data set has as its target T3, PRPF4 (UniProt O43172).
T3 sequence: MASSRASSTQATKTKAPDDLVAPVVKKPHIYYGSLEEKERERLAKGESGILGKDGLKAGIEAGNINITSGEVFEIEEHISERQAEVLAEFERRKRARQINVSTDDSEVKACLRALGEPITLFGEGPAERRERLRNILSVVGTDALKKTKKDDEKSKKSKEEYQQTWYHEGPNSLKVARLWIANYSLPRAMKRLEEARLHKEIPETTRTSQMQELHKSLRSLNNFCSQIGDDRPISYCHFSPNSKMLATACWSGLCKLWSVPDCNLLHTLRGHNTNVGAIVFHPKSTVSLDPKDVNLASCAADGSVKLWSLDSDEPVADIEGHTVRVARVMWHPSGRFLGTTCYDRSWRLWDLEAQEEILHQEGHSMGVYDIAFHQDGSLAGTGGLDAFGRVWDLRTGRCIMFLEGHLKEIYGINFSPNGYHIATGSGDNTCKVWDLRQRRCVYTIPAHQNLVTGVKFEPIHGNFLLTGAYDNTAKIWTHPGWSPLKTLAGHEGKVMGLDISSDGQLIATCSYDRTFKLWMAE
In short, it runs like this: as §1

Sequence of ZNFX1 (Q9P2E3 whole entry): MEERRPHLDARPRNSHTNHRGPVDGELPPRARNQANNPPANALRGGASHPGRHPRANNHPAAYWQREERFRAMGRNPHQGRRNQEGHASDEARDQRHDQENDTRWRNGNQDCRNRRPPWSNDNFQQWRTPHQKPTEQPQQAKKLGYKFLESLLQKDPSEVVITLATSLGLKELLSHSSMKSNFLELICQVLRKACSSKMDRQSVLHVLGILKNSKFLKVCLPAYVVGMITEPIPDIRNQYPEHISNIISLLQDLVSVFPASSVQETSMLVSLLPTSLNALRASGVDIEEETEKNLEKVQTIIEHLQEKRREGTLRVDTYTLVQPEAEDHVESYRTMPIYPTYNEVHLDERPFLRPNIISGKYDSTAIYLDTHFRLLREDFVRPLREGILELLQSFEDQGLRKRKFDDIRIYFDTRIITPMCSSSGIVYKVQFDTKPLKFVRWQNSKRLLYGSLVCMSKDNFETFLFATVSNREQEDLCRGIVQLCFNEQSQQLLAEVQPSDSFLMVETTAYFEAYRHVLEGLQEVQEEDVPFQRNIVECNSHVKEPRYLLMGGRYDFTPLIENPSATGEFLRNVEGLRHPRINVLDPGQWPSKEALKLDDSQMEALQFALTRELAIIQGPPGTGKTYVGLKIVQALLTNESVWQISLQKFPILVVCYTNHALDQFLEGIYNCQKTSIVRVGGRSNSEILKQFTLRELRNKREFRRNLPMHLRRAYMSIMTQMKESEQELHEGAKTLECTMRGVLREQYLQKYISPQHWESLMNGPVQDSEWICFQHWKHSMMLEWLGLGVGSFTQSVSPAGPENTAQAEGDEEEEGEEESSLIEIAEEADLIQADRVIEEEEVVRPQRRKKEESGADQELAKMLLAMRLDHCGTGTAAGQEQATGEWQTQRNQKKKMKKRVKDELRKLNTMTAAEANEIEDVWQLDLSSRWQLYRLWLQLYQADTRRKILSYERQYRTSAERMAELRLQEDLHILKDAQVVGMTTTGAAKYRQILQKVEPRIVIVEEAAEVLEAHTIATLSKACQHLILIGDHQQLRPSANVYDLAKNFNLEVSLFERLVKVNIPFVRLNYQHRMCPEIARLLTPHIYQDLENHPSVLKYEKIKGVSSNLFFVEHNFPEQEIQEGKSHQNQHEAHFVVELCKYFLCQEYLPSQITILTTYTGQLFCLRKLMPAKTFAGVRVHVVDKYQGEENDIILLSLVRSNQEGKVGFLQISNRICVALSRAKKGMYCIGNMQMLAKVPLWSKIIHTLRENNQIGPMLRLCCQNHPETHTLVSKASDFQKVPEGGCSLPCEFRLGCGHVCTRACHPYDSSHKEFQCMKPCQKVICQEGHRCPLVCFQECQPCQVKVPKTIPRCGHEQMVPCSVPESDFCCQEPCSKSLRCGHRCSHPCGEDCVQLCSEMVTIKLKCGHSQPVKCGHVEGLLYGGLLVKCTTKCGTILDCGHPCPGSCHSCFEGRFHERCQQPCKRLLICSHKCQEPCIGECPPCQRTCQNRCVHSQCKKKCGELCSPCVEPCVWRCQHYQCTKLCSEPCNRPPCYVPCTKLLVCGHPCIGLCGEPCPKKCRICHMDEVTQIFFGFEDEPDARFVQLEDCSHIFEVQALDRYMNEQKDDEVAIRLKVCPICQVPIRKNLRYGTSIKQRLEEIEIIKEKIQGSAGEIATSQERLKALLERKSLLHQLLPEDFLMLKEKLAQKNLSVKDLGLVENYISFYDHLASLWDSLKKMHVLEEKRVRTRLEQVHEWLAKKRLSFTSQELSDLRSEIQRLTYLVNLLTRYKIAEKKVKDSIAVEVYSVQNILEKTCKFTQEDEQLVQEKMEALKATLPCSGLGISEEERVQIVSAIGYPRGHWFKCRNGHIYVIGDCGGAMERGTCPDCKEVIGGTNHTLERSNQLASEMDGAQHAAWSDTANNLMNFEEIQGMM
Sequence of PCBP2 (Q15366 whole entry): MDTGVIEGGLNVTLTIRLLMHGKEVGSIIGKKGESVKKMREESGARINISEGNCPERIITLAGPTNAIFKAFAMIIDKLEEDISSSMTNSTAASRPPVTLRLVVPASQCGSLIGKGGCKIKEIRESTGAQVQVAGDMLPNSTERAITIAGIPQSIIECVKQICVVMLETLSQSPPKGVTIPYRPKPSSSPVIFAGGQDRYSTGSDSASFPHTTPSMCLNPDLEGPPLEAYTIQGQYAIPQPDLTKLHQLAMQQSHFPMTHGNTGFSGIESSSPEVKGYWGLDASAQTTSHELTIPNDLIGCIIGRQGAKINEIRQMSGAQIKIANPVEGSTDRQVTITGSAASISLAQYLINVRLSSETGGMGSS
Sequence of SF3B6 (Q9Y3B4 whole entry): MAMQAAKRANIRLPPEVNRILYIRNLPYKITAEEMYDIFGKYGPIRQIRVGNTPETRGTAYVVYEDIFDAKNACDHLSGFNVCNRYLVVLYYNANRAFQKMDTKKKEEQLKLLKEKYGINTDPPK

As usually defined, the EC50 is the midpoint of the concentration-response curve. Turning to AAUAAA, the EC50 was 4.9 µM with UPF1, 0.000302 µM with NONO and 4.62 µM with SF3B6.

With CUGUCCU, the values for the EC50 in the data set with PCBP2 and in the data set with RPS13 were 3.39 µM and 0.123 µM, respectively.

UAUUUAU: the figures for the EC50 with ZNFX1 and with PRPF4 were 0.436 µM and 6.81 µM, respectively.
